Test results taken from patent US20260183393A1, “IMMUNOSUPPRESSANT-RESISTANT MODIFIED ALLOGENEIC MODIFIED IMMUNE CELLS AND METHODS FOR USE THEREOF” (Beam Therapeutics Inc., priority 2023, published 2026).
Entries after “also recorded” stand apart in the source; their conditions may differ.

Assays:
FKBP1A polynucleotide = assay: Base editing of FKBP1A in primary human T cells, next-generation sequencing; type: cell-based; conditions: ABE8.20m mRNA and sgRNA electroporated into activated primary human T cells; NGS
Text: FIG. 3 provides a bar graph showing maximum A to G and C to T base editing within an FKBP1A polynucleotide achieved using base editor systems containing one of the guide polynucleotides indicated along the x-axis (see Table 1 for nucleotide sequences) and either an adenosine deaminase base editor (ABE) or a cytidine deaminase base editor (CBE), as indicated. The ABE was ABE8.20m and the CBE was rBE4. Primary human T cells were thawed and activated in vitro using an anti-CD3/CD28/CD2 reagent. On day 2 following contacting with the reagent, the T cells were washed and resuspended in P3 Buffer (Lonza) and plated in 96-well electroporation plates containing 2 μg ABE8.20m or rBE4 (CBE) and 2 μg of the indicated guide polynucleotide targeting the FKBP1A (FKBP prolyl isomerase 1A) polynucleotide. Plates were electroporated using a DH-102 setting on a Lonza Nucleofector™ 96-well plate unit. The electroporated cells were incubated for 3 days. […]
Healthy donor adult human leukopaks were commercially obtained from HemaCare (Charles River). […] Two-days post-activation, T cells were counted, washed with sterile PBS (Gibco) and resuspended in P3 buffer (Lonza) at 10^7 cells mL^−1. […]

FKBP1A protein = assay: Western blot of FKBP1A protein in edited T cells; type: cell-based, human; conditions: T cells edited with ABE8.20m and TSBT×1538 sgRNA
Method: Primary human T cells were activated with anti-CD3/CD28/CD2 reagent. On day 2 following contacting with the reagent, the T cells were contacted with the TSBT×1538 sgRNA and ABE8.20m and subsequently incubated for approximately 5 days. Unedited cells were used as a negative control. Following the approximately 5-day incubation, the cells were harvested and cell-associated protein was extracted to be evaluated in the Western blot analysis. Protein samples from the edited and unedited cells were contacted with a rabbit anti-FKBP1A or mouse anti-GAPDH (control used to normalize protein concentrations) antibodies, followed by staining with secondary anti-rabbit (HRP) and anti-mouse (NIR) antibodies, respectively. Protein was analyzed using the Jess automated Western blot analysis device available from ProteinSimple.

19CAR-T cells = assay: CAR-T cell proliferation assay; type: cell-based, human; conditions: 100 nM rapamycin
Text: Primary human T cells were activated using an anti-CD3/CD28/CD2 reagent. Two-days after being contacted with the reagent, the T cells were edited using a base editor system containing the guide polynucleotide TSBT×1538 and the base editor ABE8.20m using electroporation, as described above. Following electroporation, both the T cells were transduced with a lentiviral vector encoding an anti-CD19 CAR (19CAR) and allowed to expand in culture for approximately 7 days before being cryopreserved for later analysis. Unedited anti-CD19 CAR-T cells were prepared as a negative control. The 19CAR-T cells were then thawed from cryopreservation and rested overnight before being stimulated using dynabeads coated with recombinant human CD19 protein-coated at a bead-to-cell ratio of 1:1. The T cells were cultured in the presence of 100 nM of the immunosuppressant rapamycin or dimethylsulfoxide (DMSO) as a control for 6 days. The total number of T cells were enumerated using a NucleoCounter NC-200™ automated cell counter.
Primary human T cells were activated using an anti-CD3/CD28/CD2 reagent. Two days after being contacted with the reagent, the T cells were edited using a base editor system containing the guide polynucleotide TSBT×1538 and the base editor ABE8.20m using the electroporation protocol described above. Both edited and unedited T cells were transduced with a lentiviral vector encoding an anti-CD19 CAR (19CAR) and allowed to expand in culture for approximately 7 days before being cryopreserved for later analysis. Unedited 19CAR-T cells were used as a control. For analysis, the 19CAR-T cells were thawed and rested for 72 hours before labeling using a CellTrace™ Far Red (CTFR) dye. After CTFR labeling, the 19CAR-T cells were stimulated using an Immunocult™ Human CD3/CD28/CD2 universal T cell activator in the presence of 100 nM of the immunosuppressant agent rapamycin or in the presence of DMSO (control) and allowed to incubate for an additional 3 days. Following the three-day incubation, the T cells were analyzed using flow cytometry to measure dilution of CTFR dye as an indicator of cell proliferation.
The following day, T cells were washed, counted and 1×10^4 cells were seeded in triplicate into a 96-well flat bottom plate alone or with 1×10^4 JeKo-1.GFP^+ tumor cells. […] On day 7, samples were analyzed by flow cytometry and 19CAR-T cells were enumerated using CountBright Counting Beads (Thermo Fisher Scientific) following the manufacturer's protocol.

B1: TSBT×1538: guide polynucleotide targeting FKBP1A, SEQ ID NO: 501 (nucleic acid)
guide: CTCACCGTCTCCTGGGGAGAGTTTTAGAGCTAGAAATAGCAAGTTAAAATAAGGCTAGTCCGTTATCAACTTGAAAAAGTGGCACCGAGTCGGTGCTTTT
modifications: chemistry not given here
mean on-target genomic editing efficiency (FKBP1A polynucleotide): 93.7% | FKBP1A protein expression (FKBP1A protein): knock-out of FKBP1A protein expression; also recorded: reduced protein expression | cell proliferation in response to a universal T cell activator (19CAR-T cells; 19CAR-T cells edited with ABE8.20m and the guide, 3 days, CTFR dilution): improved cell proliferation | proliferation in the presence of rapamycin (19CAR-T cells; anti-CD19 CAR-T cells edited with ABE8.20m and the guide, CD19-coated dynabeads 1:1, 6 days): improved proliferation
